In patent publication US20140093540A1 (published 2014):

Key:
[1] = molecular target: BSG-L bait (biotinylated ectodomain of the long, three domain isoform of BASIGIN) (human; rat) (UniProt P35613); assay: SPR (BIAcore T100, 37° C.), Rh5 injected over the immobilised three domain isoform of BSG
[2] = molecular target: BSG-SCd4d3+4bio (human; rat) (UniProt P35613); assay: SPR (BIAcore T100, 37° C.), Rh5 injected over BSG-S captured on streptavidin, equilibrium, non-linear curve fit
[3] = molecular target: BSG-SCd4d3+4bio (human; rat) (UniProt P35613); assay: SPR (BIAcore T100, 37° C.), kinetic analysis at 100 µl/min, global 1:1 fit
[4] = molecular target: P. falciparum invasion ligand Rh5 (of the parasites in the invasion assays) (Plasmodium falciparum); assay: cell-based or functional assay
[5] = molecular target: human BSG on erythrocytes (human) (UniProt P35613); assay: cell-based or functional assay
[6] = molecular target: T1, biotinylated CD4 domains 3+4 alone (negative control) (rat, UniProt P05540 207-394, enzymatically biotinylated on the C-terminal biotinylation sequence); assay: flow cytometry, protein-coated fluorescent microbeads on human erythrocytes
T1 construct: domain: domains 3 and 4; Immobilised on streptavidin-coated Nile Red fluorescent microbeads in the assay; also called Cd4d3+4; CD4-coated microbeads
T1 sequence: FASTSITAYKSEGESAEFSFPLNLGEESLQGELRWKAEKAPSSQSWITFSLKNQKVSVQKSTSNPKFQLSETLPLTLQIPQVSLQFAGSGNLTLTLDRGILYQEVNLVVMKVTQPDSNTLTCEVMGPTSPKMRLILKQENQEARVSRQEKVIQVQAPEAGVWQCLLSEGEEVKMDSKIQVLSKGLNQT

Chain of human BSG on erythrocytes (human) (P35613 22-385): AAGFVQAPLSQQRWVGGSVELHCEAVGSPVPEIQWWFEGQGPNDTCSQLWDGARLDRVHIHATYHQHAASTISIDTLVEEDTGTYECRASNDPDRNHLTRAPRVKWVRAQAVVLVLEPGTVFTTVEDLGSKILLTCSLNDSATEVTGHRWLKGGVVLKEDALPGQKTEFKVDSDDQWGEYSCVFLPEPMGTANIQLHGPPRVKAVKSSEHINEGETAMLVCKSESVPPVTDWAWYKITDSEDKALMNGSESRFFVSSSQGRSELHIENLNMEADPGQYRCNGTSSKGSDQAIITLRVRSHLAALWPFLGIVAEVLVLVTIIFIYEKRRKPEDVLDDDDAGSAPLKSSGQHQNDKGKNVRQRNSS

## PfRh5Cd4d3+4-6H (from UniProt P05540 207-394) (ligand)
[1]
  Kd: 710 nM
  koff: 0.144 s⁻¹
[2]
  Kd: 1140 nM
[3]
  interaction half-life: 2.9 s
  koff: 0.24 s⁻¹
  kon: 225000 M⁻¹ s⁻¹

## BSG-S-Cd4d3+4-COMP-His (from UniProt P35613 138-325; P05540 207-394; P35444 28-72) (receptor)
[4]
  inhibition of erythrocyte invasion, Dd2 P. falciparum strain, IC50: 1000 nM

## MEM-M6/6 (antibody)
[5]
  concentration that prevented all detectable invasion, 3D7 strain, microscopy: > 10 µg/mL

B1: GLYCOPHORIN A (GYPA) on human erythrocytes (receptor)
chain: LSTTEVAMHTSTSSSVTKSYISSQTNDTHKRDTYAATPRAHEVSEISVRTVYPPEEETGERVQLAHHFSEPEITLIIFGVMAGVIGTILLISYGIRRLIKKSPSDVKPLPSPDTDVPLSSVEIENPETSDQ
modifications: sialylated (binding was lost after neuraminidase treatment of the cells)
notes: whole, on cells; also called native GYPA
[6]
  binding result: no binding
